To fix the notation:
B1: XPA23 heavy chain V99A (Fab, V domains shown)
VH: EVQLLESGGGLVQPGGSLRLSCAASGFTFSKYFMFWVRQAPGKGLEWVSVISPSGGMTRYADSVKGRFTISRDNSKNTLYLQMNSLRAEDTAVYYCARAGYGGNSDYWGQGTLVTVSS
VL: DIQMTQSPSSVSASVGDRLTIICRASQDINRWLAWYQQTPGNAPKLLIHSATSLQSGVPSRFSGSGSGTDFTLTINSLQPEDFATYYCQQADSFPLTFGGGTKVEIK
notes: Fab, periplasmic extract; also called C5A V99A
B2: XPA23 heavy chain Y32T (Fab, V domains shown)
VH: EVQLLESGGGLVQPGGSLRLSCAASGFTFSKTFMFWVRQAPGKGLEWVSVISPSGGMTRYADSVKGRFTISRDNSKNTLYLQMNSLRAEDTAVYYCARVGYGGNSDYWGQGTLVTVSS
VL: DIQMTQSPSSVSASVGDRLTIICRASQDINRWLAWYQQTPGNAPKLLIHSATSLQSGVPSRFSGSGSGTDFTLTINSLQPEDFATYYCQQADSFPLTFGGGTKVEIK
notes: Fab, periplasmic extract; also called C5A Y32T
B3: XPA23 heavy chain Y32V (Fab, V domains shown)
VH: EVQLLESGGGLVQPGGSLRLSCAASGFTFSKVFMFWVRQAPGKGLEWVSVISPSGGMTRYADSVKGRFTISRDNSKNTLYLQMNSLRAEDTAVYYCARVGYGGNSDYWGQGTLVTVSS
VL: DIQMTQSPSSVSASVGDRLTIICRASQDINRWLAWYQQTPGNAPKLLIHSATSLQSGVPSRFSGSGSGTDFTLTINSLQPEDFATYYCQQADSFPLTFGGGTKVEIK
notes: Fab, periplasmic extract; also called C5A Y32V
B4: XPA23 heavy chain Y101A (Fab, V domains shown)
VH: EVQLLESGGGLVQPGGSLRLSCAASGFTFSKYFMFWVRQAPGKGLEWVSVISPSGGMTRYADSVKGRFTISRDNSKNTLYLQMNSLRAEDTAVYYCARVGAGGNSDYWGQGTLVTVSS
VL: DIQMTQSPSSVSASVGDRLTIICRASQDINRWLAWYQQTPGNAPKLLIHSATSLQSGVPSRFSGSGSGTDFTLTINSLQPEDFATYYCQQADSFPLTFGGGTKVEIK
notes: Fab, periplasmic extract; also called C5A Y101A
B5: XPA23 heavy chain V99T (Fab, V domains shown)
VH: EVQLLESGGGLVQPGGSLRLSCAASGFTFSKYFMFWVRQAPGKGLEWVSVISPSGGMTRYADSVKGRFTISRDNSKNTLYLQMNSLRAEDTAVYYCARTGYGGNSDYWGQGTLVTVSS
VL: DIQMTQSPSSVSASVGDRLTIICRASQDINRWLAWYQQTPGNAPKLLIHSATSLQSGVPSRFSGSGSGTDFTLTINSLQPEDFATYYCQQADSFPLTFGGGTKVEIK
notes: Fab, periplasmic extract; also called C5A V99T
B6: XPA23 heavy chain Y32P (Fab, V domains shown)
VH: EVQLLESGGGLVQPGGSLRLSCAASGFTFSKPFMFWVRQAPGKGLEWVSVISPSGGMTRYADSVKGRFTISRDNSKNTLYLQMNSLRAEDTAVYYCARVGYGGNSDYWGQGTLVTVSS
VL: DIQMTQSPSSVSASVGDRLTIICRASQDINRWLAWYQQTPGNAPKLLIHSATSLQSGVPSRFSGSGSGTDFTLTINSLQPEDFATYYCQQADSFPLTFGGGTKVEIK
notes: Fab, periplasmic extract; also called C5A Y32P
B7: XPA23 heavy chain Y32L (Fab, V domains shown)
VH: EVQLLESGGGLVQPGGSLRLSCAASGFTFSKLFMFWVRQAPGKGLEWVSVISPSGGMTRYADSVKGRFTISRDNSKNTLYLQMNSLRAEDTAVYYCARVGYGGNSDYWGQGTLVTVSS
VL: DIQMTQSPSSVSASVGDRLTIICRASQDINRWLAWYQQTPGNAPKLLIHSATSLQSGVPSRFSGSGSGTDFTLTINSLQPEDFATYYCQQADSFPLTFGGGTKVEIK
notes: Fab, periplasmic extract; also called C5A Y32L
B8: XPA23 heavy chain Y32G (Fab, V domains shown)
VH: EVQLLESGGGLVQPGGSLRLSCAASGFTFSKGFMFWVRQAPGKGLEWVSVISPSGGMTRYADSVKGRFTISRDNSKNTLYLQMNSLRAEDTAVYYCARVGYGGNSDYWGQGTLVTVSS
VL: DIQMTQSPSSVSASVGDRLTIICRASQDINRWLAWYQQTPGNAPKLLIHSATSLQSGVPSRFSGSGSGTDFTLTINSLQPEDFATYYCQQADSFPLTFGGGTKVEIK
notes: Fab, periplasmic extract; also called C5A Y32G

In this experiment the target is T1, IL-1β (UniProt P01584 117-269).
T1 construct: Antigen of XPA23
The experiment in a line: Biacore, Fab periplasmic extract. (In general: In SPR one partner is held on a chip, and binding of the other changes the refractive index at the surface.)
As to B1, the “fold difference in affinity against the original” value (“fold difference in affinity” for short) was 0.03 fold. The figure for B2 is 0.8 fold; for B3 it is 1.07 fold.

B4: the “fold difference in affinity” value is 0.04 fold. In the case of B5 it was 0.1 fold; in that of B6, 0.68 fold.

Consider B7, for which the “fold difference in affinity” value stood at 0.75 fold. In the case of B8 it was 1 fold.

Source of the values: patent US20110118131A1 (published 2011).
